Experimental data published in patent US20020123614A1.

Key:
Conditions in all cases: remark: other sources report otherwise
[1] = molecular target: T1, recombinant ICAM-1 Fc chimera, P05362; assay: BIAcore; Kon calculated by Koff/KD
T1 chain: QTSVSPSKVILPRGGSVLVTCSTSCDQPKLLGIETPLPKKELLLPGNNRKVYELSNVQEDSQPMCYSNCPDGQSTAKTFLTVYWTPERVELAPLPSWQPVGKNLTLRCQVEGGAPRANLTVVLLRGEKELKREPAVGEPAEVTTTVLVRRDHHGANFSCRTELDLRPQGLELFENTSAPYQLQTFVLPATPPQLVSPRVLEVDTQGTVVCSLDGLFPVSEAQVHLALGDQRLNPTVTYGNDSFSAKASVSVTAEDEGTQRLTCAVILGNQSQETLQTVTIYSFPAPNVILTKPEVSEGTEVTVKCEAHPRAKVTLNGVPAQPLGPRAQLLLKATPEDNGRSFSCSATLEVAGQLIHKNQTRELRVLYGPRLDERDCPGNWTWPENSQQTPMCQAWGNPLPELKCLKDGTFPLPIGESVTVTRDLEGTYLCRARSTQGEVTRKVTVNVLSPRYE

[2] = molecular target: T1, recombinant ICAM-1 Fc chimera, P05362; assay: BIAcore; dissociation phase, 1:1 model
[3] = molecular target: T1, recombinant ICAM-1 Fc chimera, P05362; assay: BIAcore; Scatchard plots at steady state

B1: recombinant soluble wild-type αL I-domain (G128-Y307), E. coli, P20701 153-332 (receptor)
chain: GNVDLVFLFDGSMSLQPDEFQKILDFMKDVMKKLSNTSYQFAAVQFSTSYKTEFDFSDYVKRKDPDALLKHVKHMLLLTNTFGAINYVATEVFREELGARPDATKVLIIITDGEATDSGNIDAAKDIIRYIIGIGKHFQTKESQETLHKFASKPASEFVKILDTFEKLKDLFTELQKKIY
kon [1]: 2220 M⁻¹ s⁻¹ | koff [2]: 3 s⁻¹ | Kd [3]: 1350 µM
